Measured values taken from patent US20110008766A1 (AbbVie / Abbott, published 2011).

What was measured:
[1] = target: T1, neutrophil gelatinase associated lipocalin (NGAL) (UniProt P80188 21-198); experiment: FRET quenching titration in solution; ALEXA 488-antigen, BHQ-labelled binder
T1 construct: also called recombinant NGAL
Method: (§1) Briefly, the dissociation constants for the outer variable binding domain and the inner variable binding domain of a given DVD-Ig and its corresponding antigen were measured in direct binding experiments. […] After 30 minutes of incubation, all samples were measured on an SLM 8100 photon counting spectrofluorimeter. Samples were excited at 480 nm, and the emission was collected through a 530 nm (30 nm bandwidth) interference filter (Chroma Technology Corp., Rockingham, Vt.). All binding measurements were performed in 10 mM HEPES buffer, pH 7.4, containing 0.15 M NaCl, 3 mM EDTA, and 0.005% surfactant P20.
(§2) where Ligandₜₒₜₐₗ and ABSₜₒₜₐₗ are the -antigen concentrations and the total DVD-Ig binding sites for that antigen, respectively, and Fbound is the fraction of bound antigen. The binding data were fitted with a simple binding model to obtain the equilibrium dissociation constant (KD) according to equation [2]: […]

[2] = target: T2, interleukin 18 (IL-18) (UniProt Q14116 37-193); experiment: FRET quenching titration in solution; outer domain (IL-18 1-4091); outer domain (IL-18 1-4091)
T2 construct: ALEXA Fluor 488-labelled in the FRET assay
Method: as §1, §2

[3] = target: T1, neutrophil gelatinase associated …; experiment: FRET quenching titration in solution; inner domain (NGAL 1-2322-455); inner domain (NGAL 1-2322-455)
Method: as §1, §2

[4] = target: T3, brain natriuretic peptide (BNP) (UniProt P16860 103-134); experiment: FRET quenching titration in solution; one value given for outer and inner domain
T3 construct: ALEXA Fluor 488-labelled in the FRET assay
Method: as §1, §2

[5] = target: T3, brain natriuretic peptide (BNP); experiment: FRET quenching titration in solution; ALEXA 488-antigen, BHQ-labelled binder
Method: as §1, §2

[6] = target: T1, neutrophil gelatinase associated …; experiment: FRET quenching titration in solution; one value given for outer and inner domain
Method: as §1, §2

[7] = target: T1, neutrophil gelatinase associated …; experiment: FRET quenching titration in solution; one value printed for outer (2322) and inner (903) domain
Method: as §1, §2

T1 sequence (P80188 21-198 limits assumed): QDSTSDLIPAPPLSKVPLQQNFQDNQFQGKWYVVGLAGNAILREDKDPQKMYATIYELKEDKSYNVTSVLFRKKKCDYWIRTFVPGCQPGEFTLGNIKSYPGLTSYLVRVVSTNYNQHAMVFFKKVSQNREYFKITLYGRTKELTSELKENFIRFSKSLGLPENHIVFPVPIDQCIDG

B1: AB082 (antibody, V domains shown)
VH: EVQLVESGGGLVQPGGSLKLSCAASGFTFNNYYMSWVRQTPERRLEWVAYISSSGGSTYYSDSVRGRFTISRDTARNTLYLQMTSLKSEDTAMYYCARHFGDYSYFDYWGQGTTLTVSS
VL: DIQMTQSPASLSASVGETVTITCRASENFYSYLAWYQQKQGKSPQLLVYNAKTLAEGVPSRFSGSGSGTQFSLKINSLQPEDFGTYYCQHHYDIPLTFGAGTKLELKR
notes: also called AB082 (2322); Chimeric mAb 2322
**Q.** With B1 as the binder, how does the Kd [1] read?
**A.** < 0.05 nM

B2: DVD731 (bispecific antibody)
VH: QVQLQQPGSELVRPGASVKLSCKASGYTFTSYWMHWVKQRPGQGLEWIGNIYPGTVNTNYDEKFKNKATLTVDTSSSTAYMLLSSLTSEDSAVYYCTRDYYGGGLNYWGQGTTLTVSSASTKGPSVFPLAPEVQLVESGGGLVQPGGSLKLSCAASGFTFNNYYMSWVRQTPERRLEWVAYISSSGGSTYYSDSVRGRFTISRDTARNTLYLQMTSLKSEDTAMYYCARHFGDYSYFDYWGQGTTLTVSS
VL: SIVMTQTPKFLLVSAGDRVTITCKASQSVSNDVAWFQQKPGQSPKLLIYYASNRYAGVPDRFTGSGFGTDFTFTISTVQAEDLAVYFCHQDYSSPRTFGGGTKLEIKRTVAAPSVFIFPPDIQMTQSPASLSASVGETVTITCRASENFYSYLAWYQQKQGKSPQLLVYNAKTLAEGVPSRFSGSGSGTQFSLKINSLQPEDFGTYYCQHHYDIPLTFGAGTKLELKR
notes: also called DVD731 (IL18-2322-LL)
**Q.** B2 was tested. Which Kd [2] did it give?
**A.** 0.9 nM

**Q.** What about the Kd [3] of the same binder?
**A.** 0.08 nM

B3: DVD736 (bispecific antibody)
VH: QVQLQQPGAELVRPGASVKLSCKASGYTFTSYWMNWVKQRPEQGLEWIGRIDPYDSETHYNQKFKDKAILTVDKSSSTAFVQLTSLTSEDSAVYYCVSDGYWGAGTTVTVSSASTKGPSVFPLAPQIQLVQSGPELRKPGETVKISCKGSGYTFTHYGINWVKQTPRKDLKWMGWINTHTGEAYYADDFKGRFAFSLETSANTAYLQINNLNNGDMGTYFCTRSHRFGLDYWGQGTSVTVSS
VL: DVVMTQTPLTLSVTTGQPASISCKSSQSLLDSDGKTYLNWLFQRPGESPKLLIYVVSKLESGVPDRFTGSGSGTDFTLKISRVEAEDLGVYYCLQATHFPWTFGGGTKLEIKRTVAAPSVFIFPPDNVLTQSPPSLAVSLGQRATISCKANWPVDYNGDSYLNWYQQKPGQPPKFLIYAASNLESGIPARFSGSGSGTDFNLNIHPVEEEDAATYYCQQSNEDPFTFGSGTKLEIKR
notes: also called DVD736H/DVD736L
**Q.** For B3, which Kd [4] is on record?
**A.** < 0.03 nM

B4: DVD738 (bispecific antibody)
VH: QIQLVQSGPELRKPGETVKISCKGSGYTFTHYGINWVKQTPRKDLKWMGWINTHTGEAYYADDFKGRFAFSLETSANTAYLQINNLNNGDMGTYFCTRSHRFGLDYWGQGTSVTVSSASTKGPSVFPLAPQVQLQQPGAELVRPGASVKLSCKASGYTFTSYWMNWVKQRPEQGLEWIGRIDPYDSETHYNQKFKDKAILTVDKSSSTAFVQLTSLTSEDSAVYYCVSDGYWGAGTTVTVSS
VL: DNVLTQSPPSLAVSLGQRATISCKANWPVDYNGDSYLNWYQQKPGQPPKFLIYAASNLESGIPARFSGSGSGTDFNLNIHPVEEEDAATYYCQQSNEDPFTFGSGTKLEIKRTVAAPSVFIFPPDVVMTQTPLTLSVTTGQPASISCKSSQSLLDSDGKTYLNWLFQRPGESPKLLIYVVSKLESGVPDRFTGSGSGTDFTLKISRVEAEDLGVYYCLQATHFPWTFGGGTKLEIKR
notes: also called DVD738H/DVD738L
**Q.** How did the Kd [4] turn out when B4 was run?
**A.** < 0.03 nM

B5: AB090 (antibody, V domains shown)
VH: QVQLQQPGAELVRPGASVKLSCKASGYTFTSYWMNWVKQRPEQGLEWIGRIDPYDSETHYNQKFKDKAILTVDKSSSTAFVQLTSLTSEDSAVYYCVSDGYWGAGTTVTVSS
VL: DVVMTQTPLTLSVTTGQPASISCKSSQSLLDSDGKTYLNWLFQRPGESPKLLIYVVSKLESGVPDRFTGSGSGTDFTLKISRVEAEDLGVYYCLQATHFPWTFGGGTKLEIKR
notes: also called BNP 3-631-436
**Q.** For B5, which Kd [5] is on record?
**A.** 0.3 nM

B6: AB083 (antibody, V domains shown)
VH: KIQLVQSGPELKKPGETVKISCKASGYTFTNYGMNWVKQAPGKGLKWMGWININTGEPTYAEEFKGRFAFSLETSATTAFLQINNLKNEDTATYLCARDSYSGGFDYWGQGTIVTVSS
VL: DIVMTQSPSSLSVSAGEKVTLSCKSSQSLLISGDQKNYLAWYQQKPGQPPKLLIYGASTRDSGVPDRFTGSGSGADFTLTISSVQAEDLAVYYCQNDHSFPPTFGAGTKLELKR
notes: also called AB083 (903); Chimeric mAb 903
**Q.** B6 was tested. Which Kd [1] did it give?
**A.** 0.7 nM

B7: DVD719 (antibody)
VH: EVQLVESGGGLVQPGGSLKLSCAASGFTFNNYYMSWVRQTPERRLEWVAYISSSGGSTYYSDSVRGRFTISRDTARNTLYLQMTSLKSEDTAMYYCARHFGDYSYFDYWGQGTTLTVSSASTKGPSVFPLAPEVQLVESGGGLVQPGGSLKLSCAASGFTFNNYYMSWVRQTPERRLEWVAYISSSGGSTYYSDSVRGRFTISRDTARNTLYLQMTSLKSEDTAMYYCARHFGDYSYFDYWGQGTTLTVSS
VL: DIQMTQSPASLSASVGETVTITCRASENFYSYLAWYQQKQGKSPQLLVYNAKTLAEGVPSRFSGSGSGTQFSLKINSLQPEDFGTYYCQHHYDIPLTFGAGTKLELKRTVAAPSVFIFPPDIQMTQSPASLSASVGETVTITCRASENFYSYLAWYQQKQGKSPQLLVYNAKTLAEGVPSRFSGSGSGTQFSLKINSLQPEDFGTYYCQHHYDIPLTFGAGTKLELKR
notes: also called DVD719 (2322-2322-LL)
**Q.** Which Kd [6] does the source give for B7 here?
**A.** < 0.05 nM

B8: DVD720 (antibody)
VH: EVQLVESGGGLVQPGGSLKLSCAASGFTFNNYYMSWVRQTPERRLEWVAYISSSGGSTYYSDSVRGRFTISRDTARNTLYLQMTSLKSEDTAMYYCARHFGDYSYFDYWGQGTTLTVSSASTKGPEVQLVESGGGLVQPGGSLKLSCAASGFTFNNYYMSWVRQTPERRLEWVAYISSSGGSTYYSDSVRGRFTISRDTARNTLYLQMTSLKSEDTAMYYCARHFGDYSYFDYWGQGTTLTVSS
VL: DIQMTQSPASLSASVGETVTITCRASENFYSYLAWYQQKQGKSPQLLVYNAKTLAEGVPSRFSGSGSGTQFSLKINSLQPEDFGTYYCQHHYDIPLTFGAGTKLELKRTVAAPDIQMTQSPASLSASVGETVTITCRASENFYSYLAWYQQKQGKSPQLLVYNAKTLAEGVPSRFSGSGSGTQFSLKINSLQPEDFGTYYCQHHYDIPLTFGAGTKLELKR
notes: also called DVD720 (2322-2322-SS)
**Q.** B8 was tested. Which Kd [6] did it give?
**A.** < 0.07 nM

B9: DVD721 (antibody)
VH: KIQLVQSGPELKKPGETVKISCKASGYTFTNYGMNWVKQAPGKGLKWMGWININTGEPTYAEEFKGRFAFSLETSATTAFLQINNLKNEDTATYLCARDSYSGGFDYWGQGTIVTVSSASTKGPSVFPLAPKIQLVQSGPELKKPGETVKISCKASGYTFTNYGMNWVKQAPGKGLKWMGWININTGEPTYAEEFKGRFAFSLETSATTAFLQINNLKNEDTATYLCARDSYSGGFDYWGQGTIVTVSS
VL: DIVMTQSPSSLSVSAGEKVTLSCKSSQSLLISGDQKNYLAWYQQKPGQPPKLLIYGASTRDSGVPDRFTGSGSGADFTLTISSVQAEDLAVYYCQNDHSFPPTFGAGTKLELKRTVAAPSVFIFPPDIVMTQSPSSLSVSAGEKVTLSCKSSQSLLISGDQKNYLAWYQQKPGQPPKLLIYGASTRDSGVPDRFTGSGSGADFTLTISSVQAEDLAVYYCQNDHSFPPTFGAGTKLELKR
notes: also called DVD721 (903-903-LL)
**Q.** With B9 as the binder, how does the Kd [6] read?
**A.** < 0.3 nM

B10: DVD723 (bispecific antibody)
VH: EVQLVESGGGLVQPGGSLKLSCAASGFTFNNYYMSWVRQTPERRLEWVAYISSSGGSTYYSDSVRGRFTISRDTARNTLYLQMTSLKSEDTAMYYCARHFGDYSYFDYWGQGTTLTVSSASTKGPSVFPLAPKIQLVQSGPELKKPGETVKISCKASGYTFTNYGMNWVKQAPGKGLKWMGWININTGEPTYAEEFKGRFAFSLETSATTAFLQINNLKNEDTATYLCARDSYSGGFDYWGQGTIVTVSS
VL: DIQMTQSPASLSASVGETVTITCRASENFYSYLAWYQQKQGKSPQLLVYNAKTLAEGVPSRFSGSGSGTQFSLKINSLQPEDFGTYYCQHHYDIPLTFGAGTKLELKRTVAAPSVFIFPPDIVMTQSPSSLSVSAGEKVTLSCKSSQSLLISGDQKNYLAWYQQKPGQPPKLLIYGASTRDSGVPDRFTGSGSGADFTLTISSVQAEDLAVYYCQNDHSFPPTFGAGTKLELKR
notes: also called DVD723 (2322-903-LL)
**Q.** Which Kd [7] does the source give for B10 here?
**A.** < 0.2 nM

B11: DVD730 (bispecific antibody)
VH: QVQLQQPGSELVRPGASVKLSCKASGYTFTSYWMHWVKQRPGQGLEWIGNIYPGTVNTNYDEKFKNKATLTVDTSSSTAYMLLSSLTSEDSAVYYCTRDYYGGGLNYWGQGTTLTVSSASTKGPEVQLVESGGGLVQPGGSLKLSCAASGFTFNNYYMSWVRQTPERRLEWVAYISSSGGSTYYSDSVRGRFTISRDTARNTLYLQMTSLKSEDTAMYYCARHFGDYSYFDYWGQGTTLTVSS
VL: SIVMTQTPKFLLVSAGDRVTITCKASQSVSNDVAWFQQKPGQSPKLLIYYASNRYAGVPDRFTGSGFGTDFTFTISTVQAEDLAVYFCHQDYSSPRTFGGGTKLEIKRTVAAPDIQMTQSPASLSASVGETVTITCRASENFYSYLAWYQQKQGKSPQLLVYNAKTLAEGVPSRFSGSGSGTQFSLKINSLQPEDFGTYYCQHHYDIPLTFGAGTKLELKR
notes: also called DVD730 (IL18-2322-SS)
**Q.** For B11, which Kd [2] is on record?
**A.** 0.6 nM
